A short description of data set [1]: purified protein yield per well (BCA); higher = higher soluble expression. A digest of the protocol: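 Values under 25 ug (0.1 mg/mL) are below the detection threshold. Purified protein yield per well was quantified with the Pierce Rapid Gold BCA kit after candidate enzymes, expressed in E. coli C41(DE3), were captured on Ni-charged magnetic beads and released by SUMO protease on an OT-2 robot. Cultures were 2 mL autoinduction with 100 µg/mL kanamycin, run 2 h at 37 °C and then 40 h at 18 °C.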

Data set [2] in a line: PET hydrolysis, aromatic products released after 48 h (umol product/mg enzyme); higher = more PET depolymerization activity. Conditions: substrate: cryPow. The protocol:
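HTP-purified, SUMO-cleaved, tagless PET hydrolase candidates (5 ug, 1.43 mg/g PET) were incubated 48 h without shaking with 3.5 mg amorphous PET film (aFilm) or crystalline PET powder (cryPow) in 0.5 mL buffer: NaCitrate pH 4.5/5.5, NaPhosphate pH 6.5/7.5, glycine pH 8.5. Incubation was at 40 or 60 C. Aromatic products (TPA, MHET, BHET) in the supernatant were quantified by UV absorbance at 260/280 nm relative to buffer blanks and expressed per mg enzyme. LCC-ICCG was the positive control on every plate.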

These results are taken from the supplement of paper PMC12455559.

Take “CAAGGPGASPGLQPTIASLSVDGAFKVMTYTDIPDVPEFGDATVYYPADTPTPIGGVAISPGWTEAQRHINWWGPRLASHGYAVLVLDTNDARRDQPEERAEALIAAVRILRGENDRAESPLQGRVDTGKMAIMGHSMGGGGTLIAANKYPDEIQAAIPFTPWQPDGDFGQITAPTLVMAGSADRVAGVADHAWPHYQSIPETTTKVFMEVDGGNHFIADTRRGTDLGTIGRYGIAWLKLYLDGDERYRSFIYGAEAEVDREKFSRYLTSP [TEP119]”: the “purified protein yield per well” value in data set [1] is 78.9 µg. Besides, the PET hydrolysis in data set [2] (40 °C, pH 4.5) was below 3; in data set [2] (40 °C, pH 5.5), below 3; in data set [2] (40 °C, pH 6.5), below 3; in data set [2] (40 °C, pH 7.5) it was below 3; in data set [2] (60 °C, pH 4.5), below 3; in data set [2] (60 °C, pH 5.5) it was below 3. Besides, the PET hydrolysis in data set [2] (60 °C, pH 6.5) was below 3; in data set [2] (60 °C, pH 7.5) it was below 3.

As to “DTNPFQRGPAPTEASVSAQKGPFATAQVNVPANSGEGFNDGTIYYPTDTSQGTFGAIAVMPGFLSPQDWIRWYGPTLASQGFVVMTLDSKGFIDSPTARGNQLLAALDYLTTKSKVVDRIDTSRLGVVGWSMGGGGALESTYNRPSLKADVALAPWHVGLDQSKITVPSLILADDNDWLAPTGSFAKPFYAGIPESTNKAFIELKNANHFTFTGYNKNIAKYAVSWLKRFVDDDTRYDQFLCPKPATNNEISQSEETCPLH [DP054]”, the “purified protein yield per well” value in data set [1] turned out to be 39 µg. Moreover, the PET hydrolysis is 5 in data set [2] (40 °C, pH 5.5); 7 in data set [2] (40 °C, pH 6.5); below 3 in data set [2] (40 °C, pH 7.5); below 3 in data set [2] (40 °C, pH 8.5).

For the sequence “ATAAPLPHAAADNPYQRGPDPTIAMIESTRGPFATASVSVPPGNGFNGGMIYYPTDTSQGTWGALAIVPGYTALFANEEAWMGPWLSSFGFVVIGVETNSRTDFDTARGTQLLAALDYLTTKSPVHDRVDPNRLSVLGHSMGGGGVVYATEHRPSLKAAVALAPFSPSQNMSTDTVPTMVIGGQNDTVVTPSYVDGLYATLPATTPSDFAQIAGADHVYYTHPNNVEMKLLIPWLKTFVDNDTRYTQFLCPTLPDPSTVSAYRPKCPYVPGGGTTPPPTGNTGPLHAVGAGKCLNAGASGSQAQIQDCTGGASQVWTHTDANQLSVTNGSQLCLDASGQGTSPGTKVITWACNGQPNQQWTVNSDGTVKGVQSGLCLDVSGASTASGALVQLWTCNGQPNQQWRLG [TEP062]”, the “purified protein yield per well” value in data set [1] stood at 85.2 µg. The PET hydrolysis in data set [2] (40 °C, pH 4.5) is below 3; in data set [2] (40 °C, pH 5.5) it was below 3; in data set [2] (40 °C, pH 6.5) it was below 3; in data set [2] (40 °C, pH 7.5), below 3; in data set [2] (60 °C, pH 4.5), below 3; in data set [2] (60 °C, pH 5.5) it was below 3. Further, the PET hydrolysis in data set [2] (60 °C, pH 6.5) is below 3; in data set [2] (60 °C, pH 7.5), below 3.

As to “QVAIFQESFSSGLGGFTATGTVGTSTGAARMEGCYGCTDGAITSGAISTQGFTGLSLSFDRVTSGLDSGEAGIAEYSTNGSTWTAVESTRVTTNGRVTFSLPDTAAGQAALRLRFRIDASLSSETYTVDNVQLTGIPGDTGTNPYAKGPNPTTSMLESSTGPFTYATTNVSEFSASGYGGGTIYHPTNVAGPFAAIAISPGYTGTKSTMSWWGERLASHGFVVITIDTNSIYDQPYERAPQLMAALRQLVTFSNTSSHPIYRKVDPNRLGVMGHSMGGGGTLIAARDNPTLKAAIPLAPWNTSTDFSSVRVPTLVVACESDTIAPVSQHASPFYNSIPASATKKAFMEMNNGDHFCVMTGNDYTRIMGKYGVAWMKRFMDNDTRYSPFLCGAPHQADLSNIQISEYRENCPY [DP048]”, the “purified protein yield per well” value in data set [1] amounted to 56 µg. The PET hydrolysis in data set [2] (40 °C, pH 5.5) is below 3; in data set [2] (40 °C, pH 6.5) it was below 3; in data set [2] (40 °C, pH 7.5) it was below 3; in data set [2] (40 °C, pH 8.5) it was below 3; in data set [2] (60 °C, pH 5.5) it was below 3; in data set [2] (60 °C, pH 6.5), below 3. The PET hydrolysis was below 3 in data set [2] (60 °C, pH 7.5) and below 3 in data set [2] (60 °C, pH 8.5).

For “AAPAGPAALPARPLAAAPADSPYERGPAPTEASITAERGPFAIEKIDVPAGSGTGFNRGTIYAPTDTSQGTFGAIAVSPGFMSPQSVIDWYGPRLASQGFVVMTLETKSLLDAPAARGDQLLAALDYMTGKSKAKDRIDASRLAVMGHSMGGGGTLEAANKRASLQAAVPLAPWDTNYDWKNVQAPTMIMGADNDTIAPADSMAERYYGTLTAVPEKAYLELRNAGHTTFNAPNTTIAKYAIAWMKRFVDDDARYEQFLCPEPSPSTTIAQYEGTCPTG [TEP067]”, the “purified protein yield per well” value in data set [1] was determined as 49.7 µg. In addition, the PET hydrolysis in data set [2] (40 °C, pH 4.5) is 5; in data set [2] (40 °C, pH 5.5) it was 12; in data set [2] (40 °C, pH 6.5) it was 14; in data set [2] (40 °C, pH 7.5) it was below 3.
